{
  "source": "paper PMC5052687",
  "target": "human CD36 ectodomain (residues 35-439), C-terminal 8xHis and biotinylated BAP tag (human) (UniProt P16671)",
  "sequence (P16671 35-439)": "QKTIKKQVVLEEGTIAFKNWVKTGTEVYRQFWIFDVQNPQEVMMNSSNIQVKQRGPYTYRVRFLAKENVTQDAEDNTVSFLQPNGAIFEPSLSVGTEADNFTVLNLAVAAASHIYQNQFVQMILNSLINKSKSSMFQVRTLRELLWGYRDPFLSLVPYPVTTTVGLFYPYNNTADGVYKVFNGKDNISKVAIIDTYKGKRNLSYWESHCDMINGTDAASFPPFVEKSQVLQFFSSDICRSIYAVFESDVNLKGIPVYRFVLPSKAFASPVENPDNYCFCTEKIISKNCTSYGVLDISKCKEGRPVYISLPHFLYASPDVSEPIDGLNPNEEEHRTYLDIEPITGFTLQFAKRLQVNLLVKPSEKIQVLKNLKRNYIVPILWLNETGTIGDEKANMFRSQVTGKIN",
  "assay": "SPR; biotinylated CD36 (wild type or F153A) immobilised on a CAPture chip to ~700 RU; CIDRα domains as analytes, two-fold dilutions from 400 nM (Supplementary Figure 10: 400 nM only), 240 s injection, 300 s dissociation; 25 °C, 20 mM HEPES pH 7.5, 0.15 M NaCl, 0.005% Tween20; affinities from equilibrium binding, one site-binding model",
  "data": [
    {"substance": "IT4var26 CIDRα3.3 domain (domain or fragment)", "values": [
      {"measurement": "Kd", "result": 9.6, "unit": "nM"}
    ]}
  ]
}
